Assay [1] has as its target T1, CD37 (Leukocyte Antigen CD37, Tetraspanin-26) on cells (human, UniProt P11049 1-281).
T1 construct: In the assays it is the endogenous CD37 of human cancer cell lines, of AML patient PBMC and of patient tumor sections, or CD37 on recombinant 293T cells; also called CD37 antigen; CD37 expressing cells
T1 sequence: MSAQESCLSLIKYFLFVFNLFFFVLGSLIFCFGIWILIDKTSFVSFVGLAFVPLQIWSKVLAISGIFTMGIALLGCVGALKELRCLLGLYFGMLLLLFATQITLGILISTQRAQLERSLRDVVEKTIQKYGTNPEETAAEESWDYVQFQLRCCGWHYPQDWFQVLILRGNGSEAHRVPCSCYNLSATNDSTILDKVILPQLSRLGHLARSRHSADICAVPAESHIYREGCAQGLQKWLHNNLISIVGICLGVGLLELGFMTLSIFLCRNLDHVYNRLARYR
The experiment in a line: FACS, DOHH-2 cells (Follicular); ratio to isotype control. The text has this:
(§1) To express HvCD37-6b15.1.1 MAb recombinantly in transfected cells, HvCD37-6b15.1.1 MAb variable heavy and light chain sequences were cloned upstream of the human heavy chain IgG2 and human light chain Igκ constant regions respectively. The complete HvCD37-6b15.1.1 MAb human heavy chain and light chain cassettes were cloned downstream of the CMV promoter/enhancer in a cloning vector. A polyadenylation site was included downstream of the MAb coding sequence. The recombinant HvCD37-6b15.1.1 MAb expressing construct was transfected into CHO cells. The HvCD37-6b15.1.1 MAb secreted from recombinant cells was evaluated for binding to human cancer cell lines expressing CD37 by FACS (See, Table VI). Binding was detected by flow cytometry.
(§2) HvCD37-6b15.1.1 was tested for binding to different NHL, CLL and AML cell lines (See, Table VI) grown in-vitro. HvCD37-6b15.1.1 and an Isotype matched control antibody were biotinylated using NHS LC biotin. In vitro cancer lines growing exponentially were used for all experiments. […] After washing un-bound secondary antibody, cells were analyzed by FACS, a total of 10,000 events were collected per sample. Data files were analyzed using FlowJo and Geometric Mean Fluorescence was determined and reported. Fluorescense ratio was calculated as follows: Geo mean AGS67C/Geo Mean Isotype control=MFR, a measure of fold expression above Isotype control.
(A flow cytometer gives signals particle by particle.)

For assay [2], the target named is T1, CD37 (Leukocyte Antigen CD37, …). The experiment in a line: FACS, MOLT-4 cells (ALL); ratio to isotype control. The method, then:
(§3) HvCD37-6b15.1.1 was tested for binding to different NHL, CLL and AML cell lines (See, Table VI) grown in-vitro. HvCD37-6b15.1.1 and an Isotype matched control antibody were biotinylated using NHS LC biotin. In vitro cancer lines growing exponentially were used for all experiments. Briefly, cells were harvested by and washed by centrifugation. Antibodies were diluted to 5 μg/mL final concentration and co-incubated with cells at 4° C. for 1 hour. At the end of the incubation, cells were washed and incubated with secondary detection Streptavidin-PE antibody at a final 1:400 (1.25 μg/mL) dilution for 1 hr at 4° C. After washing un-bound secondary antibody, cells were analyzed by FACS, a total of 10,000 events were collected per sample. Data files were analyzed using FlowJo and Geometric Mean Fluorescence was determined and reported. Fluorescense ratio was calculated as follows: Geo mean AGS67C/Geo Mean Isotype control=MFR, a measure of fold expression above Isotype control.

The target is the same in assay [3]. The assay is described as follows: FACS, EoL-1 cells (AML); ratio to isotype control. Here is the method: as §3
The target is the same in assay [4]. The assay is described as follows: FACS, WSU-DLCL-2 cells (DLBCL); ratio to isotype control.
Excerpt: as §1, §2

The target is the same in assay [5]. The assay is described as follows: FACS, Raji cells (Burkitt's); ratio to isotype control. The method, then:
as §3

Assay [6] shares this target. The experiment in a line: FACS, Daudi cells (Burkitt's); ratio to isotype control.
Excerpt: as §1, §2

For assay [7] the target is unchanged. The experiment in a line: FACS, KG-1 cells (AML); ratio to secondary detection (high isotype background).
Excerpt: as §1
as §3, with “At the end of the incubation, cells were washed and incubated with secondary detection Streptavidin-PE antibody at a final 1:400 (1.25 μg/mL) dilution for 1 hr at 4° C.” left out, “Fluorescense ratio was calculated as follows: Geo mean AGS67C/Geo Mean Isotype control=MFR, a measure of fold expression above Isotype control.” left out

For assay [8] the target is unchanged. The assay is described as follows: FACS, RS4-11 cells (ALL); ratio to isotype control.
Excerpt: as §1, §2

The target is the same in assay [9]. The assay is described as follows: FACS, MOLM-13 cells (AML); ratio to isotype control. Here is the method:
as §3

For assay [10] the target is unchanged. The assay is described as follows: FACS, Ramos cells (Burkitt's); ratio to isotype control.
Excerpt: as §1, §2

Assay [11] has the same target. The experiment in a line: FACS, Kasumi-1 cells (AML); ratio to isotype control.
Excerpt: as §1, §2

For assay [12] the target is unchanged. The experiment in a line: FACS, Granta-519 cells (MCL); ratio to secondary detection (high isotype background).
Excerpt: as §1
as §3, with “At the end of the incubation, cells were washed and incubated with secondary detection Streptavidin-PE antibody at a final 1:400 (1.25 μg/mL) dilution for 1 hr at 4° C.” left out, “Fluorescense ratio was calculated as follows: Geo mean AGS67C/Geo Mean Isotype control=MFR, a measure of fold expression above Isotype control.” left out

For assay [13] the target is unchanged. The assay is described as follows: FACS, MV-4-11 cells (AML); ratio to isotype control. Here is the method:
as §3

For assay [14] the target is unchanged. The experiment in a line: FACS, REC-1 cells (MCL); ratio to isotype control.
Excerpt: as §1, §2

For assay [15] the target is unchanged. The assay is described as follows: FACS, THP-1 cells (AML); ratio to isotype control.
Excerpt: as §1, §2

Assay [16] has the same target. The experiment in a line: FACS, JVM-3 cells (CLL); ratio to isotype control. The method, then: as §3
Assay [17] shares this target. The experiment in a line: FACS, SU-DHL-4 cells (DLBCL); ratio to isotype control. The method, then: as §3
Assay [18] shares this target. The assay is described as follows: FACS, Hel 92.1 cells (AML); ratio to secondary detection (high isotype background). Here is the method: as §3, with “Fluorescense ratio was calculated as follows: Geo mean AGS67C/Geo Mean Isotype control=MFR, a measure of fold expression above Isotype control.” left out
For assay [19] the target is unchanged. The assay is described as follows: FACS, Mino cells (MCL); ratio to isotype control. Here is the method: as §3
Assay [20] has the same target. The experiment in a line: FACS, HL-60 cells (AML); ratio to isotype control.
Excerpt: as §1, §2

For assay [21] the target is unchanged. The assay is described as follows: FACS, Ramos RR XCL cells (Burkitt's, rituxan resistant); ratio to isotype control. Here is the method: as §3
Assay [22] has the same target. The experiment in a line: FACS, Mino XCL cells (MCL, in-vivo xenograft); ratio to isotype control.
Assay [23] has the same target. The experiment in a line: FACS, BDCM cells (AML); ratio to isotype control. Here is the method:
as §3

Assay [24] shares this target. The assay is described as follows: FACS on cells expressing CD37.

B1: HvCD37-6b15.1.1 MAb (recombinant, expressed in CHO cells, human IgG2 / kappa) (antibody, V domains shown)
VH: QVQLQQWGAGLLKPSETLSLTCAVYGGSFSPYYWSWIRQPPGKGLEWIGEINHSGSTNYNPSLKSRVTISVDTSKNQFSLKLSSVTAADTAVYYCARRAGDFDYWGQGTLVTVSS
VL: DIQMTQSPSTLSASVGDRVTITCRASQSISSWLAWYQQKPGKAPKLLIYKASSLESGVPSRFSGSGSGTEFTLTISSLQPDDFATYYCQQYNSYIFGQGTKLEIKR
modifications: typical heavy chain of purified CHO material: N-terminal glutamine modified to pyroglutamate and C-terminal lysine deleted; biotinylated with NHS LC biotin for the FACS assays
notes: Fully human antibody: human variable regions on human IgG2 and human kappa constant regions, made in CHO cells (ATCC PTA-120464); also called HvCD37-6b15.1.1 IgG2; AGS67C
Take B1: the “MFR (Mean Florescence ratio)” value in assay [1] was found to be 581; in [2], 3; in [3], 3; in [4], 554; in assay [5], 135; in [6] it was 39. In addition, the “MFR (Mean Florescence ratio)” value in assay [7] came to 10; in [8] it was 26; in assay [9], 6; in assay [10], 534; in [11], 9; in [12] it was 372. Besides, the “MFR (Mean Florescence ratio)” value in [13] was 8; in assay [14], 341; in assay [15], 23; in [16], 122; in [17], 662; in [18] it was 28. Moreover, the “MFR (Mean Florescence ratio)” value came to 301 in assay [19]; 5 in [20]; 140 in [21]; 316 in assay [22]; 64 in [23].

B2: HvCD37-6b15.1.1 MAb purified from hybridoma (VelocImmune mouse) (antibody, V domains shown)
VH: QVQLQQWGAGLLKPSETLSLTCAVYGGSFSPYYWSWIRQPPGKGLEWIGEINHSGSTNYNPSLKSRVTISVDTSKNQFSLKLSSVTAADTAVYYCARRAGDFDYWGQGTLVTVSS
VL: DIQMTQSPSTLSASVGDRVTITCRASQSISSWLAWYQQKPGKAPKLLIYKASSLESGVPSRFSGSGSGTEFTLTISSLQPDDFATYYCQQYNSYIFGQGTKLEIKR
notes: also called HvCD37-6b15.1.1 purified from hybridoma; MAb material derived from hybridoma cells
Consider B2, for which the binding result in [24] is listed as “binds”.

These data come from patent publication US20160051694A1 (AGENSYS, published 2016).
